Legend:
[1] = target: T1, Biotinylated Abeta42 (UniProt P05067 672-713, biotinylated (site not stated)); experiment: ELISA, biotinylated Abeta42 on neutravidin plates, ESBA212 0 to 500 nM
T1 construct: domain: Abeta42 (42 amino acid peptide); Captured on neutravidin-coated ELISA plates; also called beta-amyloid42
Procedure: (§1) The binding properties of ESBA212 were tested in an ELISA where Abeta40 and Abeta42, respectively, were used as antigens. 96-well plates were coated with 5 μg/ml neutravidin in dilution buffer (PBS/0.01% BSA/0.2% Tween-20) and incubated overnight at 4° C. The plates were then washed 3 times with TBS/0.005% Tween-20. Biotinylated Abeta40 or Abeta42 (1 μg/ml in dilution buffer) were added to each well and the plate incubated for 15 minutes at room temperature. Plates were washed as above and non-specific binding sites were blocked by addition of dilution buffer. The plates were incubated for another 1.5 hours at room temperature while shaking. After washing the prepared ESBA212 dilutions from 0 to 500 nM were added in triplicates to the wells and incubated for 1 hour at room temperature (RT) while shaking. Plates were washed and ESBA212 was detected by a purified rabbit polyclonal anti-ESBA212 antibody (1:10000 in dilution buffer) for 1 hour at RT. After washing a horseradish peroxidase-labelled anti-rabbit IgG (1:4000 in dilution buffer) was used to detect the previously bound rabbit antibodies and […]. The reaction was stopped by addition of 1 M HCl and the absorption read at 450 nm.
(§2) From the measured ESBA212 curve an EC50 could be calculated.

[2] = target: T2, Biotinylated Abeta40 (UniProt P05067 672-711, biotinylated (site not stated)); experiment: ELISA, biotinylated Abeta40 on neutravidin plates, ESBA212 0 to 500 nM
T2 construct: domain: Abeta40 (40 amino acid peptide); Captured on neutravidin-coated ELISA plates; also called beta-amyloid40
Procedure: as §1, §2

T2 sequence (P05067 672-711 limits assumed): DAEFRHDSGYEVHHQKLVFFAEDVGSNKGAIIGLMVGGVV
T1 sequence (P05067 672-713 limits assumed): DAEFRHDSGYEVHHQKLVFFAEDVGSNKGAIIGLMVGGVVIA

B1: ESBA212 (scFv)
scFv: ADIVLTQSPSSLSASVGDRVTLTCRASSSVNYMHWYQQRPGKPPKALIYATSNLASGVPSRFSGSGSGTEFTLTISSLQPEDVAVYYCQQWRTNPPTFGQGTKLEVKRGGGGSGGGGSGGGGSGGGGSQVQLVQSGPEVKKPGASVKVSCTASGYTFTEYTMHWVRQAPGQGLEWMGGVNPYNDNTSYIRKLQGRVTLTVDRSSSTAYMELTSLTSDDTAVYYCARYGGLRPYYFPMDFWGQGTLVTVSS
notes: Humanized scFv with the CDRs of mouse antibody 22C4 on framework 2.3; also called scFv ESBA212; single chain antibody ESBA212
With B1 the EC50 [1] was 1 to 15 nM and the EC50 [2] was 1 to 15 nM.
